Measurements from PMC9879285.
Values joined by “and” are separate entries in the source; they are usually repeats but may differ in a detail not shown here. Equal values may be shown once.

Target: V2E FP_HM (HIV gp41 ectodomain construct FP_HM with the V2E mutation) (HIV (HXB2 laboratory strain))
Assay: SEC

In the case of “V2E FP_HM (HIV gp41 ectodomain construct FP_HM with the V2E mutation) (domain or fragment)”, the stoichiometry N is reported as 3 and 6.
